Patent US20230125550A1 (ARCELLX, published 2023)

T1: recombinant human CD123-Fc (human, UniProt P26951 19-305)
T1 construct: not shown: Fc part of CD123-Fc
T1 sequence: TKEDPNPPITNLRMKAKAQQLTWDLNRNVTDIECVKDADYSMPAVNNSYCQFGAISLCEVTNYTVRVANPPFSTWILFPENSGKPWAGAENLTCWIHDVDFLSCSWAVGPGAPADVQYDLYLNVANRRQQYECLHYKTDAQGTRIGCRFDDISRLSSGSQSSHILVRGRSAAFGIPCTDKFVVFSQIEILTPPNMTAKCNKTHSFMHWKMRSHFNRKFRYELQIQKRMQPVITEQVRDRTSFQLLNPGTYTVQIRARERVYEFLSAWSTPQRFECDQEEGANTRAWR


molecular target: T1, recombinant human CD123-Fc; test: phage ELISA, captured CD123-Fc
Method in brief: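 Readout is the clone-averaged A450 ratio of target-Fc over IgG1-Fc wells, detected with HRP-conjugated anti-M13. Each Fc protein (5 nM) was captured on goat anti-human IgG1-Fc-coated plates. Phage were rescued with VCSM13 from BCMA-panning colonies and added at 5× dilution.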

| Binder | ELISA_avg [ratio A450 target/IgG1-Fc] |
| --- | --- |
| SEQ ID NO: 545 (designed binder, D domain, on phage) MGSWYEFDHRLEAIYDRLWALGGSEAELAFFEFDIADFEWDLQSYKGKGNPEVEALFDEAAAIGHELLAYRHN | 4.5 |
| SEQ ID NO: 525 (designed binder, D domain, on phage) MGSWYQFKDDLAHIKHLLEALGGSEAELAVFEYIIADFESFLQIYKGKGNPEVEALRKEAAAIRDELQAYRHN | 4 |
| SEQ ID NO: 522 (designed binder, D domain, on phage) MGSWWDFKDWLAEIKHDLEALGGSEAELALFESEIADFEFGLQWYKGKGNPEVEALRKEAAAIRDELQAYRHN | 4.2 |
| SEQ ID NO: 540 (designed binder, D domain, on phage) MGSWYEFDDRLDAIAYRLNALGGSEAELAWFEWEIAEFELDLQWYKGKGNPEVEALVWEADAIEWELEAYRHN | 4.6 |
| SEQ ID NO: 533 (designed binder, D domain, on phage) MGSWAEFKQRLAAIKTRLEALGGSEAELAAFMDEIMAFEWELWAYKGKGNPEVEALMNEAFAIDVELYAYRHN | 3.4 |
| SEQ ID NO: 536 (designed binder, D domain, on phage) MGSWWEFQFRLYAIDQRLLALGGSEAELAEFEQDIADFEWMLQDYKGKGNPEVEALMLEADAIEAELKAYRHN | 3.1 |
| SEQ ID NO: 519 (designed binder, D domain, on phage) MGSWLYFKEYLADIKSDLEALGGSEAELAWFEYEIADFEEQLQYYKGKGNPEVEALRKEAAAIRDELQAYRHN | 3.7 |
| SEQ ID NO: 542 (designed binder, D domain, on phage) MGSWEEFDQRLDAIDVRLYALGGSEAELAEFEFDIAAFEEWLQLYKGKGNPEVEALNMEAFAITDELCAYRHN | 3.6 |
| SEQ ID NO: 527 (designed binder, D domain, on phage) MGSWVVFKQDLADINHQLEALGGSEAELAWFEWEIADFEWELQHYKGKGNPEVEALRKEAAAIRDELQAYRHN | 3.6 |
| SEQ ID NO: 534 (designed binder, D domain, on phage) MGSWAEFKQRLAAIKTRLEALGGSEAELAAFEWEIVAFFSELFAYKGKGNPEVEALRDEAIAIETELVAYRHN | 3.6 |
| SEQ ID NO: 538 (designed binder, D domain, on phage) MGSWYEFDMRLDAIWERLTALGGSEAELADFEQYIAEFERQLQDYKGKGNPEVEALFDEAWAIEDELYAYRHN | 13.7 |
| SEQ ID NO: 524 (designed binder, D domain, on phage) MGSWDFFKYDLANINEWLEALGGSEAELADFEYGIADFELWLQDYKGKGNPEVEALRKEAAAIRDELQAYRHN | 5.5 |
| SEQ ID NO: 528 (designed binder, D domain, on phage) MGSWFQFKEFLAMITHNLEALGGSEAELAEFEHDIALFESELQQYKGKGNPEVEALRKEAAAIRDELQAYRHN | 3.1 |
| SEQ ID NO: 530 (designed binder, D domain, on phage) MGSWSWFQWDLAGIKDHLEALGGSEAELAEFESEIAYFEDELQWYKGKGNPEVEALRKEAAAIRDELQAYRHN | 12.9 |
| SEQ ID NO: 531 (designed binder, D domain, on phage) MGSWTEFKGELAEIKWILEALGGSEAELAFFEDEIAAFEWDLQKYKGKGNPEVEALRKEAAAIRDELQAYRHN | 8.2 |
| SEQ ID NO: 539 (designed binder, D domain, on phage) MGSWSEFDSRLDAIAYRLFALGGSEAELAQFEWIIADFEEDLQMYKGKGNPEVEALFSEAYAIEIELNAYRHN | 4.3 |
| SEQ ID NO: 507 (designed binder, D domain, on phage) MGSWDFFKEELAEIKHYLEALGGSEAELAFFEFWIADFEQDLQEYKGKGNPEVEALRKEAAAIRDELQAYRHN | 3.7 |
| SEQ ID NO: 508 (designed binder, D domain, on phage) MGSWFNFKEELAVIKFQLEALGGSEAELAFFEWVIADFEDDLQEYKGKGNPEVEALRKEAAAIRDELQAYRHN | 6.1 |
| SEQ ID NO: 532 (designed binder, D domain, on phage) MGSWFEFKWTLALIKQELEALGGSEAELADFEQEIAEFEWWLQTYKGKGNPEVEALRKEAAAIRDELQAYRHN | 4.9 |
| SEQ ID NO: 516 (designed binder, D domain, on phage) MGSWTWFKDNLAWIKEDLEALGGSEAELAWFELEIASFETALQDYKGKGNPEVEALRKEAAAIRDELQAYRHN | 6.9 |
| SEQ ID NO: 517 (designed binder, D domain, on phage) MGSWTYFKNDLAGIKEDLEALGGSEAELAQFEFEIAEFEWLLQDYKGKGNPEVEALRKEAAAIRDELQAYRHN | 3.6 |

| Binder | ELISA_avg [ratio A450 target/IgG1-Fc] |
| --- | --- |
| SEQ ID NO: 518 (designed binder, D domain, on phage) MGSWTWFKWDLADIKGDLEALGGSEAELAFFEEEIAEFEWRLQDYKGKGNPEVEALRKEAAAIRDELQAYRHN | 5.9 |
| SEQ ID NO: 513 (designed binder, D domain, on phage) MGSWHVFKTELADIKFYLEALGGSEAELAMFELWIAEFEHELQDYKGKGNPEVEALRKEAAAIRDELQAYRHN | 5.4 |
| SEQ ID NO: 535 (designed binder, D domain, on phage) MGSWWEFDHRLTAIDTRLQALGGSEAELAEFESSIAEFEWWLQDYKGKGNPEVEALFAEAEAIYVELDAYRHN | 4.3 |
| SEQ ID NO: 514 (designed binder, D domain, on phage) MGSWIWFKDWLADIKDLLEALGGSEAELAEFEYDIALFEDQLQAYKGKGNPEVEALRKEAAAIRDELQAYRHN | 7.3 |
| SEQ ID NO: 544 (designed binder, D domain, on phage) MGSWEEFDKRLDAITRRLMALGGSEAELAEFESTIAWFEWDLQEYKGKGNPEVEALDWEAYAIDYELGAYRHN | 4.5 |
| SEQ ID NO: 515 (designed binder, D domain, on phage) MGSWGWFKHELAFIKADLEALGGSEAELAWFEEEIAEFEYELQFYKGKGNPEVEALRKEAAAIRDELQAYRHN | 3.3 |
| SEQ ID NO: 543 (designed binder, D domain, on phage) MGSWEEFDVRLDAIFNRLWALGGSEAELAEFEFDIAWFEMDLQEYKGKGNPEVEALFDEAEAITNELVAYRHN | 4.7 |
| SEQ ID NO: 526 (designed binder, D domain, on phage) MGSWAEFKHDLADIKRELEALGGSEAELAWFELSIAFFEDELQHYKGKGNPEVEALRKEAAAIRDELQAYRHN | 3.3 |
| SEQ ID NO: 512 (designed binder, D domain, on phage) MGSWWLFKEQLALIKYNLEALGGSEAELADFESWIAEFEHQLQEYKGKGNPEVEALRKEAAAIRDELQAYRHN | 4.1 |
| SEQ ID NO: 541 (designed binder, D domain, on phage) MGSWFEFDERLDAIGSRLTALGGSEAELASFEFYIADFEEWLQQYKGKGNPEVEALEWEAFAIDEELGAYRHN | 3.8 |
| SEQ ID NO: 504 (designed binder, D domain, on phage) MGSWFMFKEELADIKDWLEALGGSEAELASFESYIAWFEQDLQWYKGKGNPEVEALRKEAAAIRDELQAYRHN | 5.7 |
| SEQ ID NO: 505 (designed binder, D domain, on phage) MGSWFMFKQELAWIKEDLEALGGSEAELADFEWDIAEFEWDLQYYKGKGNPEVEALRKEAAAIRDELQAYRHN | 7.2 |
| SEQ ID NO: 506 (designed binder, D domain, on phage) MGSWQIFKGELAYIKQYLEALGGSEAELAFFEFDIAEFEEDLQYYKGKGNPEVEALRKEAAAIRDELQAYRHN | 4.7 |
| SEQ ID NO: 509 (designed binder, D domain, on phage) MGSWYQFKTELAWIKDDLEALGGSEAELAWFEWVIADFEDDLQFYKGKGNPEVEALRKEAAAIRDELQAYRHN | 6.6 |
| SEQ ID NO: 520 (designed binder, D domain, on phage) MGSWHWFKEELAEIKEDLVALGGSEAELAWFEYDIAMFELSLQNYKGKGNPEVEALRKEAAAIRDELQAYRHN | 3.1 |
| SEQ ID NO: 521 (designed binder, D domain, on phage) MGSWNDFKEELAWIKFDLEALGGSEAELAWFEEDIAMFEQQLQAYKGKGNPEVEALRKEAAAIRDELQAYRHN | 3.8 |
| SEQ ID NO: 537 (designed binder, D domain, on phage) MGSWYEFDHRLDAIYQRLWALGGSEAELAEFEYGIAEFEEYLQDYKGKGNPEVEALISEAWAIEWELSAYRHN | 4.6 |
| SEQ ID NO: 523 (designed binder, D domain, on phage) MGSWDEFKEDLAHIKTDLEALGGSEAELALFEDEIADFEMYLQHYKGKGNPEVEALRKEAAAIRDELQAYRHN | 6.3 |
| SEQ ID NO: 510 (designed binder, D domain, on phage) MGSWFEFKDYLADIKWDLEALGGSEAELAIFEHDIAYFEHNLQQYKGKGNPEVEALRKEAAAIRDELQAYRHN | 3.8 |
| SEQ ID NO: 511 (designed binder, D domain, on phage) MGSWVRFKDFLADIKMDLEALGGSEAELADFEYHIAEFEHNLQEYKGKGNPEVEALRKEAAAIRDELQAYRHN | 5.8 |
| SEQ ID NO: 529 (designed binder, D domain, on phage) MGSWHWFKEDLAMITDVLEALGGSEAELAAFESEIAVFEADLQYYKGKGNPEVEALRKEAAAIRDELQAYRHN | 5.2 |
